Our source for the stoichiometry N values is publication PMC11721464.

The target in this assay is Zika virus prM/E heterodimer of the immature virion (Zika virus strain MR-766). The assay is described as follows: cryo-EM structure; immature ZIKV MR-766 virions purified from NH4Cl-treated Vero E6 cells, neutral pH (TNE buffer, pH 7.4); icosahedral symmetry enforced, 8.3 Å map; homology model of prM/E (template SPOV PDB 6ZQI) fitted and refined in real space.

For the substance “Zika virus prM/E heterodimer of the immature virion (complex)”, the stoichiometry N was 3.

A word on the stoichiometry N: it is the number of molecules, sites or subunits per partner or assembly.
